Experiment in all cases: cell-based or functional assay
The target in test [1] is HIV-1 JRFL envelope glycoprotein gp41 (N-trimer of the prehairpin intermediate) (HIV-1 strain JRFL).
The target in test [2] is HIV-1 isolate IIIB gp41 (envelope subtype B) (HIV-1 isolate IIIB).
The target of test [3] is HIV-1 isolate Ba-L gp41 (envelope subtype B) (HIV-1 isolate Ba-L).
The target of test [4] is HIV-1 isolate JR-CSF gp41 (envelope subtype B) (HIV-1 isolate JR-CSF).
Test [5] addresses HIV-1 isolate 92UG029 gp41 (envelope subtype A) (HIV-1 isolate 92UG029).
For test [6], the target named is HIV-1 isolate 92UG037 gp41 (envelope subtype A) (HIV-1 isolate 92UG037).
In test [7] the target is HIV-1 isolate 93IN101 gp41 (envelope subtype C) (HIV-1 isolate 93IN101).
Test [8] concerns the target HIV-1 isolate 92BR025 gp41 (envelope subtype C) (HIV-1 isolate 92BR025).
In test [9] the target is HIV-1 isolate 92UG001 gp41 (envelope subtype D) (HIV-1 isolate 92UG001).
Test [10] addresses HIV-1 isolate 92UG046 gp41 (envelope subtype D) (HIV-1 isolate 92UG046).
For test [11], the target named is HIV-1 isolate CMU02 gp41 (envelope subtype AE) (HIV-1 isolate CMU02).
Test [12] concerns the target HIV-1 isolate 93TH073 gp41 (envelope subtype E) (HIV-1 isolate 93TH073).
The target of test [13] is HIV-1 isolate CMU06 gp41 (envelope subtype E) (HIV-1 isolate CMU06).
The target of test [14] is HIV-1 isolate 93BR019 gp41 (envelope subtype BF) (HIV-1 isolate 93BR019).
The target of test [15] is HIV-1 isolate 93BR020 gp41 (envelope subtype F) (HIV-1 isolate 93BR020).
The target of test [16] is HIV-1 isolate 93BR029 gp41 (envelope subtype F) (HIV-1 isolate 93BR029).
Test [17] concerns the target HIV-1 isolate G3 gp41 (envelope subtype G) (HIV-1 isolate G3).
In test [18] the target is HIV-1 isolate RU570 gp41 (envelope subtype G) (HIV-1 isolate RU570).

From patent US20140323392A1 (UNIVERSITY OF UTAH RESEARCH FOUNDATION, published 2014) come the findings set out here.

Bridges are numbered along the chain shown (N, C = ends). [ ]: non-standard residue; d: D form.

B1: PIE12 trimer (Table 3) (peptide)
peptide: Ac-[dH][dP][dC][dD][dY][dP][dE][dW][dQ][dW][dL][dC][dE][dL]G[dK]-NH2
modifications: disulfide 3-12 (inferred); also: trimer, crosslinking not given here
On to B1, for which the “IC50, replication competent virus on PBMC target cells” value (“IC50, replication competent virus” for short) in [1] was 0.26 nM; in test [2], 0.78 nM; in test [3], 0.27 nM; in [4] it was 0.08 nM; in test [5] it was 0.69 nM; in test [6] it was 0.21 nM. Also, the “IC50, replication competent virus” value in [7] amounted to 0.38 nM; in test [8] it was 5.19 nM; in test [9] it was 4.45 nM; in [10], 1.2 nM; in test [11], 0.35 nM; in test [12], 0.84 nM. Besides, the “IC50, replication competent virus” value amounted to 0.38 nM in test [13]; 4.72 nM in [14]; 0.37 nM in test [15]; 0.79 nM in [16]; 1.21 nM in test [17]; 0.36 nM in [18].
